The text below walks through data of the Immune Epitope Database (IEDB).

In test [1] the target is HLA-A*02:06. Kind of test: IEDB peptide-MHC binding, purified MHC/competitive/radioactivity; ≥ and ≤ were set here for values at or beyond the usual limits of such assays.
Another test deals with HLA-A*02:03. The description is as above.
Another test addresses HLA-A*02:02. Put plainly: IEDB peptide-MHC binding, cellular MHC/competitive/fluorescence; ≥ and ≤ were set here for values at or beyond the usual limits of such assays.
Test [2] has as its target HLA-A*68:02. The test is described as above.
Test [3] addresses HLA-A*02:01. Described as above.
For test [4], the target named is HLA-A*02:01. Kind of test: IEDB peptide-MHC binding, purified MHC/competitive/radioactivity; ≥ and ≤ were set here for values at or beyond the usual limits of such assays. Conditions: source organism: Vaccinia virus WR.
For test [5], the target named is HLA-A*68:02. The description is as above. The settings on record: source organism: Vaccinia virus WR.
Test [6] addresses HLA-A*02:06. Put plainly: IEDB peptide-MHC binding, cellular MHC/competitive/fluorescence; ≥ and ≤ were set here for values at or beyond the usual limits of such assays. The settings on record: source organism: Vaccinia virus WR.
The mark [7] stands for this setting: source organism: Vaccinia virus WR.
Setting [8] is: source organism: Influenza A virus.

Where only a bound is given, the exact number is not on record here.

Consider LVQYRILPM, for which the concentration for half-maximal inhibition (IC50) with HLA-A*02:06 [1] (setting [7]) came to 4.67 µM; with HLA-A*02:03 (setting [7]), 1.17 µM; with HLA-A*02:02 (setting [7]) it was 14.8 µM; with HLA-A*68:02 [2] (setting [7]), 59.6 µM; with HLA-A*02:01 [3] (setting [7]), 34.7 µM.
Turning to TQVKELGIA, the 50% inhibitory concentration (IC50) was 0.056 µM with HLA-A*02:06 [1] (setting [7]); 0.052 µM in the test with HLA-A*02:03 (setting [7]); 7.22 µM with HLA-A*02:02 (setting [7]); 23.4 µM with HLA-A*68:02 [2] (setting [7]); 12.4 µM with HLA-A*02:01 [3] (setting [7]).
For the sequence QQLCTMERT, the IC50 with HLA-A*02:06 [1] (setting [7]) was 0.929 µM; with HLA-A*02:03 (setting [7]), 4.52 µM; in the test with HLA-A*02:02 (setting [7]) it was not below 70 µM; in the test with HLA-A*68:02 [2] (setting [7]), not below 70 µM; with HLA-A*02:01 [3] (setting [7]), 46.7 µM.
For the sequence IVQSVLRDI, the concentration for half-maximal inhibition (IC50) is 1.31 µM with HLA-A*02:06 [1] (setting [7]); 0.101 µM with HLA-A*02:03 (setting [7]); not below 70 µM with HLA-A*02:02 (setting [7]); 47.8 µM with HLA-A*68:02 [2] (setting [7]); 47.3 µM with HLA-A*02:01 [3] (setting [7]).
For the sequence VQLSNNKYV, the IC50 with HLA-A*02:06 [1] (setting [7]) is 0.214 µM; with HLA-A*02:03 (setting [7]), 0.541 µM; in the test with HLA-A*02:01 [4] it was 1.82 µM; with HLA-A*02:02 (setting [7]), 7.34 µM; with HLA-A*68:02 [2] (setting [7]) it was not below 70 µM.
In the case of LTQVKELGIA, the IC50 with HLA-A*02:06 [1] (setting [7]) is 0.018 µM; with HLA-A*02:03 (setting [7]) it was 0.15 µM; with HLA-A*02:02 (setting [7]), 11.8 µM; with HLA-A*68:02 [2] (setting [7]) it was 13.4 µM; with HLA-A*02:01 [3] (setting [7]) it was 39.2 µM.
The corresponding values for GALYLGHSA are 0.792 µM, 1.9 µM, 7.5 µM, 12.8 µM and 22.6 µM.
As to AAMDDFQLI, the half-maximal inhibitory concentration (IC50) in the test with HLA-A*02:06 [1] (setting [8]) was determined as 0.099 µM; in the test with HLA-A*02:03 (setting [8]), 1.73 µM; with HLA-A*02:02 (setting [8]), 9.59 µM; with HLA-A*68:02 [2] (setting [8]), 57.9 µM; in the test with HLA-A*02:01 [3] (setting [8]), 7.96 µM.
For GVLIAGIIL, the half-inhibitory concentration (IC50) in the test with HLA-A*02:06 [1] (setting [7]) came to 0.951 µM; in the test with HLA-A*02:03 (setting [7]) it was 1.04 µM; with HLA-A*02:01 [4], 0.545 µM; with HLA-A*02:02 (setting [7]) it was 5.24 µM; with HLA-A*68:02 [2] (setting [7]), 16.9 µM.
Take ITPNNLNKI: the 50% inhibitory concentration (IC50) stood at 0.409 µM with HLA-A*02:06 [1] (setting [7]); 0.876 µM with HLA-A*02:03 (setting [7]); 14.6 µM with HLA-A*02:02 (setting [7]); 13.4 µM with HLA-A*68:02 [2] (setting [7]); 33.5 µM with HLA-A*02:01 [3] (setting [7]).
In the same order, the values of FAFIDFSKST are 1.41 µM, 2.41 µM, 11.8 µM, 5.06 µM and 7.72 µM.
For GLIVILFIM, the IC50 with HLA-A*02:03 (setting [7]) was determined as 1.39 µM; with HLA-A*68:02 [5], 1.38 µM; with HLA-A*02:01 [4] it was 1.66 µM; with HLA-A*02:06 [6] it was 5.29 µM; with HLA-A*02:02 (setting [7]), 13.4 µM.
With VILKDPRIA, the IC50 with HLA-A*02:06 [1] (setting [7]) turned out to be 0.318 µM; with HLA-A*02:03 (setting [7]) it was 0.603 µM; with HLA-A*02:01 [4] it was 0.697 µM; with HLA-A*02:02 (setting [7]), 10.6 µM; in the test with HLA-A*68:02 [2] (setting [7]) it was 37.9 µM.
In the case of VTLNRIKIA, the IC50 with HLA-A*02:06 [1] (setting [7]) was determined as 0.625 µM; with HLA-A*02:03 (setting [7]), 0.407 µM; with HLA-A*02:01 [4], 1.1 µM; with HLA-A*02:02 (setting [7]), 13.3 µM; with HLA-A*68:02 [2] (setting [7]), 26.3 µM.
Turning to VTDKTAYIGT, the half-inhibitory concentration (IC50) in the test with HLA-A*02:06 [1] (setting [7]) was 0.227 µM; with HLA-A*02:03 (setting [7]) it was 4 µM; with HLA-A*02:02 (setting [7]) it was 21.8 µM; with HLA-A*68:02 [2] (setting [7]), 6.47 µM; with HLA-A*02:01 [3] (setting [7]), 6.62 µM.
On to VAMLLTHGA, for which the half-inhibitory concentration (IC50) with HLA-A*02:06 [1] (setting [7]) was determined as 0.726 µM; with HLA-A*02:03 (setting [7]), 0.628 µM; with HLA-A*02:02 (setting [7]) it was 7.16 µM; with HLA-A*68:02 [2] (setting [7]), 9.47 µM; in the test with HLA-A*02:01 [3] (setting [7]), 8.93 µM.
The corresponding values for YVILKDPRIA are 1.9 µM, 0.355 µM, 6.01 µM, 19 µM and 39.5 µM.
With GAAITLVVI, the IC50 with HLA-A*02:06 [1] (setting [7]) was found to be 2.95 µM; with HLA-A*02:03 (setting [7]), 3.28 µM; with HLA-A*02:01 [4], 1.08 µM; in the test with HLA-A*02:02 (setting [7]), 6.45 µM; with HLA-A*68:02 [2] (setting [7]), 7.26 µM.
For SLCPIRGWAI, the results for the half-maximal inhibitory concentration (IC50) with HLA-A*02:02 (setting [8]) and with HLA-A*68:02 [2] (setting [8]) were 5.52 µM and 16.2 µM, respectively.
In the case of VIDRLPSET, the 50% inhibitory concentration (IC50) with HLA-A*02:06 [1] (setting [7]) was determined as 3.67 µM; in the test with HLA-A*02:03 (setting [7]), 0.742 µM; in the test with HLA-A*02:01 [4] it was 3.5 µM; in the test with HLA-A*02:02 (setting [7]), 7.08 µM; with HLA-A*68:02 [2] (setting [7]), 8.57 µM.
Turning to VQLPKRGVRV, the IC50 with HLA-A*02:06 [1] (setting [7]) amounted to 0.041 µM; with HLA-A*02:03 (setting [7]), 2.21 µM; in the test with HLA-A*02:01 [4] it was 1.64 µM; with HLA-A*02:02 (setting [7]) it was 33.7 µM; with HLA-A*68:02 [2] (setting [7]), 55.7 µM.
In the same order, the values of ITLVVISVI are 1.03 µM, 1.81 µM, 0.551 µM, 15.1 µM and 6.03 µM.
NTITTFIPI: the 50% inhibitory concentration (IC50) with HLA-A*02:03 (setting [7]) stood at 0.988 µM; with HLA-A*68:02 [5], 0.0012 µM; with HLA-A*02:01 [4], 0.857 µM; with HLA-A*02:06 [6], 7.77 µM; with HLA-A*02:02 (setting [7]) it was 15.5 µM.

Broadly, the IC50 is the point on the concentration scale where inhibition reaches its midpoint.
